Patent US20110081662A1, “SCREENING METHODS FOR BONE MORPHOGENETIC MIMETICS” (THRASOS THERAPEUTICS, INC., priority 2000, published 2011)

Legend:
[1] = target: T1, ECD of daf-4 receptor (Caenorhabditis elegans, UniProt P50488); experiment: Type II receptor-based HTS rapid solid-phase assay; format: binding, C. elegans; conditions: ECD immobilized on PVDF membrane, 18 h, room temperature
T1 construct: 1 includes additional portions on the N and C terminus; made in house; host or cells: transfected DHFR(-) CHO cell line PJ511.9.8, purified from conditioned medium
T1 sequence (P50488 with tags, fused parts or gaps): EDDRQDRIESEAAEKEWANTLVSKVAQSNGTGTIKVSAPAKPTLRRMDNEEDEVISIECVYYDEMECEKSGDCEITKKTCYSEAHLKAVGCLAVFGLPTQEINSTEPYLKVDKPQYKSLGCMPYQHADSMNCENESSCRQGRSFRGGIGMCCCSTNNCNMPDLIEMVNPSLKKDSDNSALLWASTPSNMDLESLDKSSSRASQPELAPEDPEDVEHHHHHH
Description: Preparation of type II Receptor ECD: Highly purified extracellular domain (ECD) of the type II receptor daf-4 was used in this assay. The ECD of the daf-4 receptor was cloned and vectors (pCMV5 expression vectors, daf-4 sequence including the mammalian consensus start site and the hexa-histidine sequence tag) are constructed for the expression of this molecule in mammalian cells. In this construct, the ECD has been linked to a hexa-Histadine sequence tag for subsequent purification and detection. The transfected DHFR(−) CHO cell line PJ511.9.8 has been used for the daf-4 expression as outlined below. This cloning method can also be utilized with other bone morphogenetic proteins.
Purification of daf-4 ECD: A purification protocol to process large volumes of conditioned media (3.5 L/week) was developed. The procedure involves initial isolation of daf-4 ECD by using Talon (Pharmacia Tech.) Immobilized metal affinity column. As daf-4 ECD protein is linked to a hexa-His sequence, the protein is bound to the metal affinity column and is subsequently eluted by imidazoic ([…]) containing buffer. […] The purified preparation was analyzed by reversed phase HPLC. […]
HTS assay procedure: BMP-7 binding activity was determined by a rapid solid-phase assay using ^125I-labeled BMP-7 as ligand and highly purified ECD of daf-4 as type II receptor. […]

[2] = target: T2, daf-4 ECD (Caenorhabditis elegans, UniProt P50488); experiment: BMP binding to purified daf-4 ECD (ligand blot, Scatchard analysis); design: species or system C. elegans
T2 construct: 1 includes additional portions on the N and C terminus; made in house; host or cells: transfected DHFR(-) CHO cell line PJ511.9.8, purified from conditioned medium
T2 sequence (P50488 with tags, fused parts or gaps): T1 sequence (P50488 with tags, fused parts or gaps)
Description: A novel ligand-blot technique was developed to evaluate the binding of BMP-7 to the purified daf-4 ECD.

[3] = test system: bone formation; experiment: Subcutaneous implantation assay in rodents (bone formation); format: in vivo; conditions: rat, subcutaneous implant, day 14, data not shown
Description: Subcutaneous implantation assay in rodents: This assay is based on the ability of BMP-7 to induce bone formation in the rat. […] Briefly, 1.2 mg of bovine bone matrix (collagen carrier) was added to BMP-7 or test peptide or small molecule or BMP-7 and test peptide in 200 μl of 50% acetonitrile, […]. A minimum of 6 animals per group were used. The day of implantation is designated as day 0 of the assay. Implants were removed on day 14 for evaluation. Bone-forming activity in the implants was monitored by the calcium content essentially as described by Reddi, A. H. & Huggins, C. B. (1972) PNAS USA 69, 1601-1605. For histology, implants were fixed in Bouin's solution, embedded in JB4 plastic medium, cut into 1 um sections, and stained by toluidine blue. […] (Data not shown)

B1: BMP-7: homodimeric glycoprotein of the TGF-β superfamily; unlabeled standard (protein)
chain: STGSKQRSQNRSKTPKNQEALRMANVAENSSSDQRQACKKHELYVSFRDLGWQDWIIAPEGYAAYYCEGECAFPLNSYMNATNHAIVQTLVHFINPETVPKPCCAPTQLNAISVLYFDDSSNVILKKYRNMVVRACGCH
In the case of B1, the “inhibition of 125I-labeled BMP-7 binding to the ECD of daf-4 receptor” value [1] is reported as 78%, the “binding to extracellular domain of daf-4” value [2] is reported as “readily binds” and the “bone formation in implants” value [3] is reported as “induced bone formation”.
